Here are results for 3 molecules from article PMC3412936 (Journal of molecular biology, 2012).

Common to all, as to assay: ITC
The target of assay [1] is engineered WW2_RW domain of WWOX (E66R/Y85W double-mutant of WW2 domain) (human, UniProt Q9NZC7 57-91, E66R | Y85W).
Assay [2] concerns the target T1, engineered WW1-WW2rw tandem domains of WWOX (human, UniProt Q9NZC7 16-91, E66R | Y85W).
T1 sequence (looked up): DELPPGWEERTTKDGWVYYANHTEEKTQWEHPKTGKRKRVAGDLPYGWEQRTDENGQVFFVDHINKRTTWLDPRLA

For assay [3], the target named is T2, WW1 domain (residues 16-50) of human WWOX (human, UniProt Q9NZC7 16-50).
T2 chain (looked up): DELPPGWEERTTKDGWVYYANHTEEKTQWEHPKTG

The target of assay [4] is T3, WW1-WW2 tandem domains (residues 16-91) of human WWOX (human, UniProt Q9NZC7 16-91).
T3 sequence (looked up): T1 sequence (looked up) with R51E, W70Y

Residue numbers refer to the chain shown, from its start. A value given as a limit tells only on which side of the number the result lay.

B1: WBP2_PY2 peptide (12-mer spanning the PY2 PPXY motif of human WBP2) (peptide)
chain: VQPPPPPYPGPM
As to B1, the Kd in assay [1] was 69 µM; in assay [2], 86 µM; in assay [3], greater than 1000 µM; in assay [4], 326 µM. Also, the dH was -8.44 kcal/mol in assay [1], -11.5 kcal/mol in assay [2] and -3.36 kcal/mol in assay [4]. Also, the “stoichiometry N” value in assay [2] stood at 1.02; in assay [4] it was 1.03.

B2: WBP1_PY2 peptide (12-mer spanning the PY2 PPXY motif of human WBP1) (peptide)
chain: PGTPPPPYTVAP
With B2, the dissociation constant (Kd) was found to be 123 µM in assay [1], 101 µM in assay [2], 366 µM in assay [3] and 132 µM in assay [4]. For the same molecule, the dH in assay [1] is -12.1 kcal/mol; in assay [2], -10.1 kcal/mol; in assay [3] it was -16.1 kcal/mol; in assay [4], -9.85 kcal/mol. Also, the “stoichiometry N” value turned out to be 2.02 in assay [2] and 0.99 in assay [4].

B3: WBP1_PY1 peptide (12-mer spanning the PY1 PPXY motif of human WBP1) (peptide)
chain: STFKPPAYEDVV
For B3, the Kd in assay [1] was 80 µM; in assay [2] it was 103 µM; in assay [3], greater than 1000 µM; in assay [4], greater than 1000 µM. For the same molecule, the dH in assay [1] was -5.59 kcal/mol; in assay [2], -8.66 kcal/mol. In assay [2], the “stoichiometry N” value was 1.07.
